Assay results reported in article PMC7865074, “Role of PDZ-binding motif from West Nile virus NS5 protein on viral replication” (Scientific Reports, 2021).
Ends that are not written are not given here.

Molecular target: T1, biotinylated WNV NS5 PBM peptide (West Nile virus, also: biotinyl group, end not given here)
T1 construct: bait of the holdup assay; also called 13-mer peptide; source: synthetic peptide (solid phase, Fmoc; Proteogenix)
T1 peptide: RYEDTTLVEDTVL
Assay: holdup assay (automated high-throughput chromatography); biotinylated NS5 PBM peptide as bait against 259 human PDZ domains expressed in E. coli; read-out binding intensity (BI), mean of replicates; BI threshold 0.2 for a significant interaction

Binder | BI (holdup binding intensity)
Rho GTPase-activating protein 21, PDZ domain (holdup construct) (domain or fragment, human, UniProt Q5T5U3 50-159, looked up, also called ARHGAP21; source: E. coli, PDZome V.2 library, high-throughput expression) TVTLKRTSQGFGFTLRHFIVYPPESAIQFSYKDEENGNRGGKQRNRLEPMDTIFVKQVKEGGPAFEAGLCTGDRIIKVNGESVIGKTYSQVIALIQNSDTTLELSVMPKD | 0.3
Membrane-associated guanylate kinase, WW and PDZ domain-containing protein 3, PDZ domain 2 (holdup construct) (domain or fragment, human, UniProt Q5TCQ9 410-492, looked up, also called MAGI3 _2; source: E. coli, PDZome V.2 library, high-throughput expression) RASLKKSTMGFGFTIIGGDRPDEFLQVKNVLKDGPAAQDGKIAPGDVIVDINGNCVLGHTHADVVQMFQLVPVNQYVNLTLCR | 0.61
Microtubule-associated serine/threonine-protein kinase 1, PDZ domain (holdup construct) (domain or fragment, human, UniProt Q9Y2H9 967-1055, looked up, also called MAST1; source: E. coli, PDZome V.2 library, high-throughput expression) PITIQRSGKKYGFTLRAIRVYMGDTDVYSVHHIVWHVEEGGPAQEAGLCAGDLITHVNGEPVHGMVHPEVVELILKSGNKVAVTTTPFE | 0.52
Microtubule-associated serine/threonine-protein kinase 2, PDZ domain (holdup construct) (domain or fragment, human, UniProt Q6P0Q8 1104-1192, looked up, also called MAST2; source: E. coli, PDZome V.2 library, high-throughput expression) PIIIHRAGKKYGFTLRAIRVYMGDSDVYTVHHMVWHVEDGGPASEAGLRQGDLITHVNGEPVHGLVHTEVVELILKSGNKVAISTTPLE | 0.72
Na(+)/H(+) exchange regulatory cofactor NHE-RF1, PDZ domain 1 (holdup construct) (domain or fragment, human, UniProt O14745 14-94, looked up, source: E. coli, PDZome V.2 library, high-throughput expression) LCCLEKGPNGYGFHLHGEKGKLGQYIRLVEPGSPAEKAGLLAGDRLVEVNGENVEKETHQQVVSRIRAALNAVRLLVVDPE | 0.68
Na(+)/H(+) exchange regulatory cofactor NHE-RF2, PDZ domain 1 (holdup construct) (domain or fragment, human, UniProt Q15599 11-90, looked up, also called NHERF2_1; source: E. coli, PDZome V.2 library, high-throughput expression) LCRLVRGEQGYGFHLHGEKGRRGQFIRRVEPGSPAEAAALRAGDRLVEVNGVNVEGETHHQVVQRIKAVEGQTRLLVVDQ | 0.21
Na(+)/H(+) exchange regulatory cofactor NHE-RF2, PDZ domain 2 (holdup construct) (domain or fragment, human, UniProt Q15599 150-230, looked up, also called NHERF2_2; source: E. coli, PDZome V.2 library, high-throughput expression) RLCHLRKGPQGYGFNLHSDKSRPGQYIRSVDPGSPAARSGLRAQDRLIEVNGQNVEGLRHAEVVASIKAREDEARLLVVDP | 0.74
Partitioning defective 3 homolog, PDZ domain 3 (holdup construct) (domain or fragment, human, UniProt Q8TEW0 590-677, looked up, also called PARD3_3; source: E. coli, PDZome V.2 library, high-throughput expression) EVPLNDSGSAGLGVSVKGNRSKENHADLGIFVKSIINGGAASKDGRLRVNDQLIAVNGESLLGKTNQDAMETLRRSMSTEGNKRGMIQ | 0.29
Partitioning defective 3 homolog B, PDZ domain 1 (holdup construct) (domain or fragment, human, UniProt Q8TEW8 201-289, looked up, also called PARD3B_1; source: E. coli, PDZome V.2 library, high-throughput expression) TRTVEISGEGGPLGIHVVPFFSSLSGRILGLFIRGIEDNSRSKREGLFHENECIVKINNVDLVDKTFAQAQDVFRQAMKSPSVLLHVLP | 0.48
Rho guanine nucleotide exchange factor 12, PDZ domain (holdup construct) (domain or fragment, human, UniProt Q9NZN5 72-151, looked up, also called ARHGEF12; source: E. coli, PDZome V.2 library, high-throughput expression) CVIIQKDDNGFGLTVSGDNPVFVQSVKEDGAAMRAGVQTGDRIIKVNGTLVTHSNHLEVVKLIKSGSYVALTVQGRPPGS | 0.25
PDZ domain-containing protein 7, PDZ domain 3 (holdup construct) (domain or fragment, human, UniProt Q9H5P4 862-934, looked up, also called PDZD7_3; source: E. coli, PDZome V.2 library, high-throughput expression) TVTLSKMKQSLGISISGGIESKVQPMVKIEKIFPGGAAFLSGALQAGFELVAVDGENLEQVTHQRAVDTIRRA | 0.27
PDZ domain-containing RING finger protein 3, PDZ domain 1 (holdup construct) (domain or fragment, human, UniProt Q9UPQ7 249-339, looked up, also called PDZRN3_1; source: E. coli, PDZome V.2 library, high-throughput expression) TLVLHRDSGSLGFNIIGGRPSVDNHDGSSSEGIFVSKIVDSGPAAKEGGLQIHDRIIEVNGRDLSRATHDQAVEAFKTAKEPIVVQVLRRT | 0.35
Protein scribble homolog, PDZ domain 1 (holdup construct) (domain or fragment, also called SCRIB_1; source: E. coli, PDZome V.2 library, high-throughput expression) not shown | 0.27
Protein scribble homolog, PDZ domain 3 (holdup construct) (domain or fragment, human, UniProt Q14160 1004-1093, looked up, also called SCRIB_3; source: E. coli, PDZome V.2 library, high-throughput expression) EIRLPRAGGPLGLSIVGGSDHSSHPFGVQEPGVFISKVLPRGLAARSGLRVGDRILAVNGQDVRDATHQEAVSALLRPCLELSLLVRRDP | 0.33
SH3 and multiple ankyrin repeat domains protein 1, PDZ domain (holdup construct) (domain or fragment, human, UniProt Q9Y566 663-757, looked up, also called SHANK1; source: E. coli, PDZome V.2 library, high-throughput expression) TVLLQKKDSEGFGFVLRGAKAQTPIEEFTPTPAFPALQYLESVDEGGVAWRAGLRMGDFLIEVNGQNVVKVGHRQVVNMIRQGGNTLMVKVVMVT | 0.39
SH3 and multiple ankyrin repeat domains protein 2, PDZ domain (holdup construct) (domain or fragment, human, UniProt Q9UPX8 626-720, looked up, also called SHANK2; source: E. coli, PDZome V.2 library, high-throughput expression) TVVLQKKDNEGFGFVLRGAKADTPIEEFTPTPAFPALQYLESVDEGGVAWQAGLRTGDFLIEVNNENVVKVGHRQVVNMIRQGGNHLVLKVVTVT | 0.39
SH3 and multiple ankyrin repeat domains protein 3, PDZ domain (holdup construct) (domain or fragment, human, UniProt Q9BYB0 646-740, looked up, also called SHANK3; source: E. coli, PDZome V.2 library, high-throughput expression) VAVLQKRDHEGFGFVLRGAKAETPIEEFTPTPAFPALQYLESVDVEGVAWRAGLRTGDFLIEVNGVNVVKVGHKQVVALIRQGGNRLVMKVVSVT | 0.39

Binder | BI (holdup binding intensity)
Beta-1-syntrophin, PDZ domain (holdup construct) (domain or fragment, human, UniProt Q13884 112-195, looked up, also called SNTB1; source: E. coli, PDZome V.2 library, high-throughput expression) GVKVLKQELGGLGISIKGGKENKMPILISKIFKGLAADQTQALYVGDAILSVNGADLRDATHDEAVQALKRAGKEVLLEVKYMR | 0.22
Synaptojanin-2-binding protein, PDZ domain (holdup construct) (domain or fragment, human, UniProt P57105 13-100, looked up, also called SYNJ2BP; source: E. coli, PDZome V.2 library, high-throughput expression) EINLTRGPSGLGFNIVGGTDQQYVSNDSGIYVSRIKENGAAALDGRLQEGDKILSVNGQDLKNLLHQDAVDLFRNAGYAVSLRVQHRL | 0.21
Disks large homolog 1, PDZ domain 2 (holdup construct) (domain or fragment, human, UniProt Q12959 319-405, looked up, also called DLG1_2; source: E. coli, PDZome V.2 library, high-throughput expression) EIKLIKGPKGLGFSIAGGVGNQHIPGDNSIYVTKIIEGGAAHKDGKLQIGDKLLAVNNVCLEEVTHEEAVTALKNTSDFVYLKVAKP | 0.22
Zona Occludens 3; Tight Junction Protein 3, PDZ domain 2 (holdup construct) (domain or fragment, human, UniProt O95049 195-272, looked up, also called TJP3_2; source: E. coli, PDZome V.2 library, high-throughput expression) SVLVKRRDSEEFGVKLGSQIFIKHITDSGLAARHRGLQEGDLILQINGVSSQNLSLNDTRRLIEKSEGKLSLLVLRDR | 0.23
Connector enhancer of kinase suppressor of ras 3, PDZ domain (holdup construct) (domain or fragment, human, UniProt Q6P9H4 211-293, looked up, also called CNKSR3; source: E. coli, PDZome V.2 library, high-throughput expression) EVHLPNIKPGEGLGMYIKSTYDGLHVITGTTENSPADRSQKIHAGDEVIQVNQQTVVGWQLKNLVKKLRENPTGVVLLLKKRP | < 0.15
PDZ domain-containing protein GIPC3, PDZ domain (holdup construct) (domain or fragment, human, UniProt Q8TF64 112-192, looked up, source: E. coli, PDZome V.2 library, high-throughput expression) EVEVTKTEDALGLTITDNGAGYAFIKRIKEGSIINRIEAVCVGDSIEAINDHSIVGCRHYEVAKMLRELPKSQPFTLRLVQ | < 0.15
MAGUK p55 subfamily member 5, PDZ domain (holdup construct) (domain or fragment, human, UniProt Q8N3R9 256-336, looked up, also called MPP5; source: E. coli, PDZome V.2 library, high-throughput expression) IVRIEKARDIPLGATVRNEMDSVIISRIVKGGAAEKSGLLHEGDEVLEINGIEIRGKDVNEVFDLLSDMHGTLTFVLIPSQ | < 0.15
Protein piccolo, PDZ domain (holdup construct) (domain or fragment, human, UniProt Q9Y6V0 4496-4590, looked up, also called PCLO; source: E. coli, PDZome V.2 library, high-throughput expression) RIKITRDSKDHTVSGNGLGIRIVGGKEIPGHSGEIGAYIAKILPGGSAEQTGKLMEGMQVLEWNGIPLTSKTYEEVQSIISQQSGEAEICVRLDL | < 0.15
PDZ and LIM domain protein 1, PDZ domain (holdup construct) (domain or fragment, human, UniProt O00151 3-85, looked up, also called PDLIM1; source: E. coli, PDZome V.2 library, high-throughput expression) TQQIDLQGPGPWGFRLVGGKDFEQPLAISRVTPGSKAALANLCIGDVITAIDGENTSNMTHLEAQNRIKGCTDNLTLTVARSE | < 0.15
PDZ domain-containing protein 4, PDZ domain (holdup construct) (domain or fragment, human, UniProt Q76G19 130-214, looked up, also called PDZD4; source: E. coli, PDZome V.2 library, high-throughput expression) EVELYKSSHRDKLGLMVCYRTDDEEDLGIYVGEVNPNSIAAKDGRIREGDRIIQINGVDVQNREEAVAILSQEENTNISLLVARP | < 0.15
26S proteasome non-ATPase regulatory subunit 9, PDZ domain (holdup construct) (domain or fragment, human, UniProt O00233 108-195, looked up, also called PSMD9; source: E. coli, PDZome V.2 library, high-throughput expression) QARDMAEAHKEAMSRKLGQSESQGPPRAFAKVNSISPGSPASIAGLQVDDEIVEFGSVNTQNFQSLHNIGSVVQHSEGKPLNVTVIRR | < 0.15
Regulating synaptic membrane exocytosis protein 2, PDZ domain (holdup construct) (domain or fragment, human, UniProt Q9UQ26 668-754, looked up, also called RIMS2; source: E. coli, PDZome V.2 library, high-throughput expression) DGSVPRDSGAMLGLKVVGGKMTESGRLCAFITKVKKGSLADTVGHLRPGDEVLEWNGRLLQGATFEEVYNIILESKPEPQVELVVSR | < 0.15
T-lymphoma invasion and metastasis-inducing protein 2, PDZ domain (holdup construct) (domain or fragment, human, UniProt Q8IVF5 890-976, looked up, also called TIAM2; source: E. coli, PDZome V.2 library, high-throughput expression) DVQLTKTGSVCDFGFAVTAQVDERQHLSRIFISDVLPDGLAYGEGLRKGNEIMTLNGEAVSDLDLKQMEALFSEKSVGLTLIARPPD | < 0.15
Disks large homolog 4, PDZ domain 3 (holdup construct) (domain or fragment, human, UniProt P78352 313-393, looked up, also called DLG4_3; source: E. coli, PDZome V.2 library, high-throughput expression) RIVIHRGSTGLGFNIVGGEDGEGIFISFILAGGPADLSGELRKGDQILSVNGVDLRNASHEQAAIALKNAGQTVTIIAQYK | 0.24
FERM and PDZ domain-containing protein 4, PDZ domain (holdup construct) (domain or fragment, human, UniProt Q14CM0 78-155, looked up, also called FRMPD4; source: E. coli, PDZome V.2 library, high-throughput expression) KVEMRRDPVLGFGFVAGSEKPVVVRSVTPGGPSEGKLIPGDQIVMINDEPVSAAPRERVIDLVRSCKESILLTVIQPY | 0.32
Membrane-associated guanylate kinase, WW and PDZ domain-containing protein 1, PDZ domain 2 (holdup construct) (domain or fragment, human, UniProt Q96QZ7 472-554, looked up, also called MAGI1_2; source: E. coli, PDZome V.2 library, high-throughput expression) HTKLRKSSRGFGFTVVGGDEPDEFLQIKSLVLDGPAALDGKMETGDVIVSVNDTCVLGHTHAQVVKIFQSIPIGASVDLELCR | 0.55
Membrane-associated guanylate kinase, WW and PDZ domain-containing protein 2, PDZ domain 2 (holdup construct) (domain or fragment, human, UniProt Q86UL8 426-510, looked up, also called MAGI2_2; source: E. coli, PDZome V.2 library, high-throughput expression) STTLKKSNMGFGFTIIGGDEPDEFLQVKSVIPDGPAAQDGKMETGDVIVYINEVCVLGHTHADVVKLFQSVPIGQSVNLVLCRGY | 0.38
